Data as given in patent US20260242735A1.

Columns and labels:
Assay in all cases: alanine scan, flow cytometry, HEK293-T
[1] = biological target: human CD33 S181A (human) (UniProt P20138)
[2] = biological target: human CD33 E170A (human) (UniProt P20138)
[3] = biological target: human CD33 F177A (human) (UniProt P20138)
[4] = biological target: human CD33 H57A (human) (UniProt P20138)
[5] = biological target: human CD33 G58A (human) (UniProt P20138)
[6] = biological target: human CD33 R91A (human) (UniProt P20138)
[7] = biological target: human CD33 P132A (human) (UniProt P20138)
[8] = biological target: human CD33 F90A (human) (UniProt P20138)
[9] = biological target: human CD33 L148A (human) (UniProt P20138)
[10] = biological target: human CD33 Q87A (human) (UniProt P20138)
[11] = biological target: human CD33 L161A (human) (UniProt P20138)
[12] = biological target: human CD33 A108S (human) (UniProt P20138)
[13] = biological target: human CD33 R111A (human) (UniProt P20138)
[14] = biological target: human CD33 C101A (human) (UniProt P20138)
[15] = biological target: human CD33 S115A (human) (UniProt P20138)
[16] = biological target: human CD33 G123A (human) (UniProt P20138)
[17] = biological target: human CD33 C169A (human) (UniProt P20138)
[18] = biological target: human CD33 K126A (human) (UniProt P20138)
[19] = biological target: human CD33 S186A (human) (UniProt P20138)
[20] = biological target: human CD33 N99A (human) (UniProt P20138)
[21] = biological target: human CD33 Q171A (human) (UniProt P20138)
[22] = biological target: human CD33 S68A (human) (UniProt P20138)
[23] = biological target: human CD33 Y49A (human) (UniProt P20138)
[24] = biological target: human CD33 V106A (human) (UniProt P20138)
[25] = biological target: human CD33 Y129A (human) (UniProt P20138)
[26] = biological target: human CD33 P46A (human) (UniProt P20138)
[27] = biological target: human CD33 K159A (human) (UniProt P20138)
[28] = biological target: human CD33 P175A (human) (UniProt P20138)
[29] = biological target: human CD33 A182S (human) (UniProt P20138)
[30] = biological target: human CD33 G114A (human) (UniProt P20138)
[31] = biological target: human CD33 S131A (human) (UniProt P20138)
[32] = biological target: human CD33 S135A (human) (UniProt P20138)
[33] = biological target: human CD33 L153A (human) (UniProt P20138)
[34] = biological target: human CD33 N53A (human) (UniProt P20138)
[35] = biological target: human CD33 I147A (human) (UniProt P20138)
[36] = biological target: human CD33 P189A (human) (UniProt P20138)
[37] = biological target: human CD33 L93A (human) (UniProt P20138)
[38] = biological target: human CD33 I47A (human) (UniProt P20138)
[39] = biological target: human CD33 Y116A (human) (UniProt P20138)
[40] = biological target: human CD33 R190A (human) (UniProt P20138)
[41] = biological target: human CD33 N100A (human) (UniProt P20138)
[42] = biological target: human CD33 L134A (human) (UniProt P20138)
[43] = biological target: human CD33 F61A (human) (UniProt P20138)
[44] = biological target: human CD33 N160A (human) (UniProt P20138)
[45] = biological target: human CD33 I149A (human) (UniProt P20138)
Sequence of human CD33 I149A (human) (P20138 18-364 I149A limits assumed): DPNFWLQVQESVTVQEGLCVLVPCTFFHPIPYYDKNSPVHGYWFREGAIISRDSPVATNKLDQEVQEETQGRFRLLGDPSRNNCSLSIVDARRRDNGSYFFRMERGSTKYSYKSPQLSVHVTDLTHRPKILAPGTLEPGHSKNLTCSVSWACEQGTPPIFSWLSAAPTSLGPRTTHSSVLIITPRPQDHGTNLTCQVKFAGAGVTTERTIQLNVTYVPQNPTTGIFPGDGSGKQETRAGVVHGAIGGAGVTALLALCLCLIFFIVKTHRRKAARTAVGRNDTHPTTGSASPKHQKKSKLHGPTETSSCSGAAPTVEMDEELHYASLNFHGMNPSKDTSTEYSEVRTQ

Sequence of human CD33 G114A (human) (P20138 18-364 G114A limits assumed): as the sequence (P20138 18-364 I149A limits assumed) above, with G97A, A132I counted along it
Sequence of human CD33 E170A (human) (P20138 18-364 E170A limits assumed): as the sequence (P20138 18-364 I149A limits assumed) above, with A132I, E153A counted along it
Sequence of human CD33 N99A (human) (P20138 18-364 N99A limits assumed): as the sequence (P20138 18-364 I149A limits assumed) above, with N82A, A132I counted along it
Sequence of human CD33 N53A (human) (P20138 18-364 N53A limits assumed): as the sequence (P20138 18-364 I149A limits assumed) above, with N36A, A132I counted along it
Sequence of human CD33 K159A (human) (P20138 18-364 K159A limits assumed): as the sequence (P20138 18-364 I149A limits assumed) above, with A132I, K142A counted along it
Sequence of human CD33 Q87A (human) (P20138 18-364 Q87A limits assumed): as the sequence (P20138 18-364 I149A limits assumed) above, with Q70A, A132I counted along it
Sequence of human CD33 S135A (human) (P20138 18-364 S135A limits assumed): as the sequence (P20138 18-364 I149A limits assumed) above, with S118A, A132I counted along it
Sequence of human CD33 A182S (human) (P20138 18-364 A182S limits assumed): as the sequence (P20138 18-364 I149A limits assumed) above, with A132I, A165S counted along it
Sequence of human CD33 Y129A (human) (P20138 18-364 Y129A limits assumed): as the sequence (P20138 18-364 I149A limits assumed) above, with Y112A, A132I counted along it
Sequence of human CD33 I147A (human) (P20138 18-364 I147A limits assumed): as the sequence (P20138 18-364 I149A limits assumed) above, with I130A, A132I counted along it
Sequence of human CD33 C169A (human) (P20138 18-364 C169A limits assumed): as the sequence (P20138 18-364 I149A limits assumed) above, with A132I, C152A counted along it
Sequence of human CD33 G123A (human) (P20138 18-364 G123A limits assumed): as the sequence (P20138 18-364 I149A limits assumed) above, with G106A, A132I counted along it
Sequence of human CD33 G58A (human) (P20138 18-364 G58A limits assumed): as the sequence (P20138 18-364 I149A limits assumed) above, with G41A, A132I counted along it

Substance: Refmab #7 (WM53) (antibody)
- Mean % WT Binding [1]: 86.7 % WT binding
- Mean % WT Binding [2]: 118 % WT binding
- Mean % WT Binding [3]: 74.1 % WT binding
- Mean % WT Binding [4]: 112 % WT binding
- Mean % WT Binding [5]: 97.2 % WT binding
- Mean % WT Binding [6]: 114 % WT binding
- Mean % WT Binding [7]: 104 % WT binding
- Mean % WT Binding [8]: 83.3 % WT binding
- Mean % WT Binding [9]: 96.7 % WT binding
- Mean % WT Binding [10]: 90.1 % WT binding
- Mean % WT Binding [11]: 120 % WT binding
- Mean % WT Binding [12]: 120 % WT binding
- Mean % WT Binding [13]: 94 % WT binding
- Mean % WT Binding [14]: 1.8 % WT binding
- Mean % WT Binding [15]: 95.1 % WT binding
- Mean % WT Binding [16]: 76 % WT binding
- Mean % WT Binding [17]: 90 % WT binding
- Mean % WT Binding [18]: 156 % WT binding
- Mean % WT Binding [19]: 93.4 % WT binding
- Mean % WT Binding [20]: 102 % WT binding
- Mean % WT Binding [21]: 121 % WT binding
- Mean % WT Binding [22]: 120 % WT binding
- Mean % WT Binding [23]: 13.7 % WT binding
- Mean % WT Binding [24]: 126 % WT binding
- Mean % WT Binding [25]: 155 % WT binding
- Mean % WT Binding [26]: 75.3 % WT binding
- Mean % WT Binding [27]: 110 % WT binding
- Mean % WT Binding [28]: 126 % WT binding
- Mean % WT Binding [29]: 114 % WT binding
- Mean % WT Binding [30]: 94.6 % WT binding
- Mean % WT Binding [31]: 114 % WT binding
- Mean % WT Binding [32]: 101 % WT binding
- Mean % WT Binding [33]: 101 % WT binding
- Mean % WT Binding [34]: 140 % WT binding
- Mean % WT Binding [35]: 92 % WT binding
- Mean % WT Binding [36]: 119 % WT binding
- Mean % WT Binding [37]: 102 % WT binding
- Mean % WT Binding [38]: 50.2 % WT binding
- Mean % WT Binding [39]: 1.7 % WT binding
- Mean % WT Binding [40]: 123 % WT binding
- Mean % WT Binding [41]: 128 % WT binding
- Mean % WT Binding [42]: 96.6 % WT binding
- Mean % WT Binding [43]: 123 % WT binding
- Mean % WT Binding [44]: 112 % WT binding
- Mean % WT Binding [45]: 96.9 % WT binding
